The text below walks through data of paper PMC7264223, “Tetrameric architecture of an active phenol-bound form of the AAA^+ transcriptional regulator DmpR” (Nature Communications, 2020).

T1: DmpR (Pseudomonas putida, UniProt Q7WSM9)
T1 construct: DmpR^WT, full-length (1–563), N-terminal 6 × His tag
T1 sequence (Q7WSM9 1-563): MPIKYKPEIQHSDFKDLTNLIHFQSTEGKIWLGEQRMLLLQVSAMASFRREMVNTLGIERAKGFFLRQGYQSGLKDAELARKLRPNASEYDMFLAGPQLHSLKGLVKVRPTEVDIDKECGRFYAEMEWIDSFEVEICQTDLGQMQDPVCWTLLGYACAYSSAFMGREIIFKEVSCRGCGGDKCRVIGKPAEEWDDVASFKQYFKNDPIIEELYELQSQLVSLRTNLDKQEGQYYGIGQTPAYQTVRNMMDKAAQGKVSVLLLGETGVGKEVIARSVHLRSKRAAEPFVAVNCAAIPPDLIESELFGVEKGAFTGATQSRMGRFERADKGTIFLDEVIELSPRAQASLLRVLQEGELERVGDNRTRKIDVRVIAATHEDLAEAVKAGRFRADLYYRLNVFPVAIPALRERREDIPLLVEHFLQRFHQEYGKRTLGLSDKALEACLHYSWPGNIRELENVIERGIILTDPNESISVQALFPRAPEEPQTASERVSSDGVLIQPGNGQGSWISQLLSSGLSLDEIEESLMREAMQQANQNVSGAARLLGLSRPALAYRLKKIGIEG

B1: DmpR^WT, full-length DmpR (di-methyl phenol regulator) bearing an N-terminal 6 × His tag (natural protein, Pseudomonas putida KCTC 1452, UniProt Q7WSM9 1-563, looked up)
chain: T1 sequence (Q7WSM9 1-563)
notes: DmpR (CapR) of Pseudomonas putida KCTC 1452, codons 1-563 (wild type), GenBank AAP46187.1; 66 kDa with tag; Mixture of dimers and tetramers without phenol, predominantly a tetramer with phenol; Vector pProEX HTa; also called CapR; wild type DmpR; source: E. coli BL21-CodonPlus (DE3)-RIL, purified (His-Trap HP, Superdex 200); not shown: His6, N-terminal, kept
B2: σ^54_((1–119))-CPD, N-terminal residues of σ^54 (aa 1–119) fused to a C-terminal cysteine protease domain (CPD) (domain or fragment, UniProt P0A171 1-119, looked up)
chain: MKPSLVLKMGQQLTMTPQLQQAIRLLQLSTLDLQQEIQEALESNPMLERQEDGEDFDNSDPMADNAENKPAAEVQDNSFQESTVSADNLEDGEWSERIPNELPVDTAWEDIYQTSASSL
notes: also called N-terminal peptide of σ^54; σ^54 peptide; source: E. coli BL21-CodonPlus (DE3)-RIL, purified (His-Trap HP, Superdex 200); not shown: CPD (cysteine protease domain), C-terminal, kept

For data set [1], the target named is T1, DmpR. Put plainly: activation of ATPase activity (radiolabelled ATP, TLC); phenol-induced tetramerization (BN-PAGE, SEC-MALS, single-molecule photobleaching). Type of data set: biochemical. A general note: SEC sorts molecules by how far they enter the pores of the column.
In data set [2] the target is DmpR (Pseudomonas putida, UniProt Q7WSM9, C119S/C137S). Kind of data set: ([…] Å) and isothermal titration calorimetry. Type of data set: binding. For orientation: Isothermal titration calorimetry measures the heat released or taken up as one component is titrated into another.
The target of data set [3] is DmpR^ΔD, truncated DmpR derivative (aa 18–481) with C119S/C137S (Pseudomonas putida KCTC 1452). Kind of data set: not stated; DmpR^ΔD in the presence of phenol (Supplementary Fig. 2a, b).
The target is the same in data set [4]. Kind of data set: crystal structure; DmpR^ΔD crystallised with 10 mM phenol and 3 mM AMP-PNP, sitting drop, 4 °C; 3.4 Å.
Data set [5] concerns the target DmpR^ΔS, truncated DmpR lacking only the sensory domain (residues 205–563) (Pseudomonas putida KCTC 1452). Put plainly: native gel or EMSA; blue native PAGE of truncated DmpR proteins after incubation with ATP or ATPγS, without phenol. (A gel shift assay detects complexes by their altered migration in electrophoresis.)
The target is the same in data set [6]. Kind of data set: SEC-MALS; SEC combined with MALS of DmpR^ΔS.
For data set [7], the target named is eGFP-DmpR^WT, fusion of eGFP and N-terminally 6 × His-tagged DmpR^WT (Pseudomonas putida KCTC 1452). Put plainly: single-molecule fluorescence imaging (TIRF); eGFP-DmpR^WT (100 pM, with 1 mM MgCl2, 3 mM phenol, 1 mM ATPγS) held by biotinylated anti-GFP antibody; 1 nM Cy5-labelled σ^54_((1–119))-CPD added; 50 mM HEPES-NaOH pH 7.5, 300 mM NaCl, 5 mM MgCl2.
Data set [8] has the same target. Put plainly: single-molecule fluorescence imaging (TIRF); biotinylated σ^54_((1–119))-CPD immobilised through biotin-streptavidin; eGFP-DmpR^WT added with phenol and ATPγS; bleaching steps of bound eGFP-DmpR counted.
For data set [9] the target is unchanged. Put plainly: single-molecule photobleaching (TIRF); eGFP-DmpR^WT (100 pM) held by biotinylated anti-GFP antibody on streptavidin surface, PBS, without phenol; steps of eGFP bleaching counted.
For data set [10] the target is unchanged. Put plainly: single-molecule photobleaching (TIRF); eGFP-DmpR^WT (100 pM) held by biotinylated anti-GFP antibody on streptavidin surface, PBS, with 3 mM phenol; addition of 1 mM ATP changed nothing.
Data set [11] deals with the molecule itself. Kind of data set: native gel or EMSA; blue native PAGE (4–16% gradient gel), 20 µM DmpR, 20 min at 25 °C, without phenol.
Data set [12] addresses B1. Kind of data set: ITC; MicroCal Auto-iTC200, 25 °C; DmpR in the cell, σ^54_((1–119))-CPD (400 µM) as injectant; with phenol and ATPγS. To be noted: both partners purified.

Several values for one entry are separate records, joined by “and”; a condition that tells them apart may be missing. Equal values may be shown once.

For the molecule `Oc1ccccc1` [phenol], on DmpR [1], the “activation of ATPase activity (radiolabelled ATP, TLC); phenol-induced tetrameri” value was “The DmpR^WT and DmpR^ΔD proteins exhibited ATP hydrolysis in the presence of phenol”. For the same molecule, the Kd (in general, a measure of binding affinity in units of concentration) on DmpR [2] was approximately 12 µM.
Regarding “DmpR^ΔD, truncated DmpR derivative (aa 18–481) with C119S/C137S (domain or fragment)”, the stoichiometry N in data set [3] and in data set [4] was 4 throughout.
On to “DmpR^ΔS, truncated DmpR lacking only the sensory domain (residues 205–563) (domain or fragment)”, for which the stoichiometry N in [5] and in data set [6] was 4 throughout.
Take “eGFP-DmpR^WT, fusion of eGFP and N-terminally 6 × His-tagged DmpR^WT (natural protein)”: the stoichiometry N in data set [7] and in data set [8] was 4 in each case. For the same molecule, the percent of molecules with four-step photobleaching (tetramers) was 19% in [9] and 34% in [10]. Further, the percent of molecules with three-step photobleaching (trimers) in data set [9] is 14%. The percent of molecules with two-step photobleaching (dimers) in data set [9] came out at 32%; in data set [10], 17%.
Regarding B1, in [11], the stoichiometry N (commonly the number of molecules, sites or subunits per partner or assembly) was 2 and 4.
Turning to B2, in [12], the Kd is approximately 4 µM and the “stoichiometry N” value amounted to 0.86 ± 0.022.
